Target: prophagic Cu,Zn superoxide dismutase SodC-F1 of E. coli O157:H7 (soluble recombinant mature enzyme from pO157-ΔCys) (E. coli O157:H7 EDL933)
Assay: SEC

## prophagic Cu,Zn superoxide dismutase SodC-F1 of E. coli O157:H7 (soluble recombinant mature enzyme from pO157-ΔCys)
  stoichiometry N: 2
